Laboratory results from US20210275644A1 (OCTAPHARMA, published 2021).

T1: Recombinant SIG-5 Fc-fusion protein (R&D Systems) (human, UniProt O15389 17-434, limits assumed)
T1 construct: Bought from R&D Systems; Held on the plate by protein A; also called SIGLEC 5; not shown: Fc part of the bought fusion protein
T1 sequence (looked up): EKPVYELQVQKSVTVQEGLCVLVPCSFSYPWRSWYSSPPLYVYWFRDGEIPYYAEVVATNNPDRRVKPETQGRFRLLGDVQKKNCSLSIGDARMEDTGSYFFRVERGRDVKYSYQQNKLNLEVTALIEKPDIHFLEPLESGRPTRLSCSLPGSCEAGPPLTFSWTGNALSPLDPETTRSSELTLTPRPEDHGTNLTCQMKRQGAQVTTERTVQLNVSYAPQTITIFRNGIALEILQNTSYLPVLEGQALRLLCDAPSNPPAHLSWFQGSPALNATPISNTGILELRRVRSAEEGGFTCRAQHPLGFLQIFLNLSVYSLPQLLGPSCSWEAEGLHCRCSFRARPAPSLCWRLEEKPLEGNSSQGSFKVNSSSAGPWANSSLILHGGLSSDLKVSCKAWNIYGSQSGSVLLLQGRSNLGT

B1: Recombinant SIG-F (mouse equivalent of human SIG-8) Fc-fusion protein (R&D Systems) (Fc fusion)
chain: TDGYSLSVTGSVTVQEGLCVFVACQVQYPNSKGPVFGYWFREGANIFSGSPVATNDPQRSVLKEAQGRFYLMGKENSHNCSLDIRDAQKIDTGTYFFRLDGSVKYSFQKSMLSVLVIALTEVPNIQVTSTLVSGNSTKLLCSVPWACEQGTPPIFSWMSSALTSLGHRTTLSSELNLTPRPQDNGTNLTCQVNLPGTGVTVERTQQLSVIYAPQKMTIRVSWGDDTGTKVLQSGASLQIQEGESLSLVCMADSNPPAVLSWERPTQKPFQLSTPAELQLPRAELEDQGKYICQAQNSQGAQTASVSLSIRSLLQLLGPSCSFEGQGLHCSCSSRAWPAPSLRWRLGEGVLEGNSSNGSFTVKSSSAGQWANSSLILSMEFSSNHRLSCEAWSDNRVQRATILLVSGPKVSQAGKSETSRGTVL
notes: Bought from R&D Systems; not shown: Fc part of the bought fusion protein
B2: Recombinant SIG-10 Fc-fusion protein (R&D Systems) (Fc fusion, human, UniProt Q96LC7 17-546, looked up)
chain: MDGRFWIRVQESVMVPEGLCISVPCSFSYPRQDWTGSTPAYGYWFKAVTETTKGAPVATNHQSREVEMSTRGRFQLTGDPAKGNCSLVIRDAQMQDESQYFFRVERGSYVRYNFMNDGFFLKVTALTQKPDVYIPETLEPGQPVTVICVFNWAFEECPPPSFSWTGAALSSQGTKPTTSHFSVLSFTPRPQDHNTDLTCHVDFSRKGVSAQRTVRLRVAYAPRDLVISISRDNTPALEPQPQGNVPYLEAQKGQFLRLLCAADSQPPATLSWVLQNRVLSSSHPWGPRPLGLELPGVKAGDSGRYTCRAENRLGSQQRALDLSVQYPPENLRVMVSQANRTVLENLGNGTSLPVLEGQSLCLVCVTHSSPPARLSWTQRGQVLSPSQPSDPGVLELPRVQVEHEGEFTCHARHPLGSQHVSLSLSVHYSPKLLGPSCSWEAEGLHCSCSSQASPAPSLRWWLGEELLEGNSSQDSFEVTPSSAGPWANSSLSLHGGLSSGLRLRCEAWNVHGAQSGSILQLPDKKGLIST
notes: Bought from R&D Systems; Held on the plate by protein A; not shown: Fc part of the bought fusion protein
B3: Cluster 1 fragment (tryptic glycopeptide of plasma derived vWF, AA 449 to 511) (peptide)
peptide: VTLNPSDPEHC(Maleimide‑PEG2‑Biotin)QIC(Maleimide‑PEG2‑Biotin)HC(Maleimide‑PEG2‑Biotin)DVVNLTC(Maleimide‑PEG2‑Biotin)EAC(Maleimide‑PEG2‑Biotin)QEPGGLVVPPTDAPVSPTTLYVEDISEPPLHDFYC(Maleimide‑PEG2‑Biotin)SR
modifications: also: natural O-glycans (sialylated core 2), sites not given here
notes: also called Cluster I; O-glycosylation Cluster I

What was measured:
[1] = target: T2, Seq11 (recombinant vWF fragment AA 1-505 of SEQ ID NO: 1 with C-terminal Strep-Tag, from HEK 293) (human, UniProt P04275 764-1268, four O-glycosylation sites 485, 492, 493, 500 occupied (core 1, core 2 and/or extended core 1, sialylated)); assay: SIGLEC ELISA, Scatchard analysis of the binding curve (apparent KD); printed SIGLEC 8, ELISA done as in Examples 8 and 9 with SIG-F
T2 construct: Expressed in HEK293 / MEXi-293 cells, purified on Strep-Tactin; not shown: C-terminal Twin-Strep-tag of the pDSG vector (IBA)

[2] = target: T3, vWF C-terminal fragment (V8 protease digest of plasma derived vWF) (human, UniProt P04275 2129-2813, biotinylated with EZ-Link Sulfo-NHS-Biotin); assay: ELISA: SIGLEC-Fc captured on a protein A plate (500 ng/well), biotinylated vWF fragment at 1 µg/mL, streptavidin-HRP, A492, single concentration; sheet says Siglec 8, legend says SIG-F
T3 construct: the real molecule is only its C-terminal part; also called C-terminal vWF fragment

[3] = target: T4, Plasma derived VWF (pdVWF), biotinylated (human, UniProt P04275 764-2813, biotinylated with EZ-Link Sulfo-NHS-Biotin; natural N- and O-glycans of plasma vWF); assay: ELISA: SIGLEC-Fc captured on a protein A plate (500 ng/well), biotinylated plasma derived vWF 0-0.8 µg/mL, streptavidin-HRP, A492
T4 construct: Plasma-derived multimeric glycoprotein; also called von Willebrand factor; full length vWF

[4] = target: T1, Recombinant SIG-5 Fc-fusion protein …; assay: ELISA: SIGLEC-Fc captured on a protein A plate (500 ng/well), biotinylated cluster fragment at 4 µg/mL, streptavidin-HRP, A492, single concentration
[5] = target: T5, Recombinant SIG-7 Fc-fusion protein (R&D Systems) (human, UniProt Q9Y286 19-357, limits assumed); assay: as above
T5 construct: Bought from R&D Systems; Held on the plate by protein A; also called SIGLEC 7; not shown: Fc part of the bought fusion protein

[6] = target: T6, Recombinant SIG-9 Fc-fusion protein (R&D Systems) (human, UniProt Q9Y336 18-348); assay: as above
T6 construct: Bought from R&D Systems; Held on the plate by protein A; also called SIGLEC 9; not shown: Fc part of the bought fusion protein

[7] = target: B2; assay: as above
[8] = target: B1; assay: ELISA: SIGLEC-Fc captured on a protein A plate (500 ng/well), biotinylated cluster fragment at 4 µg/mL, streptavidin-HRP, A492, single concentration; sheet says Siglec 8, legend says SIG-F

T5 sequence (Q9Y286 19-357 limits assumed): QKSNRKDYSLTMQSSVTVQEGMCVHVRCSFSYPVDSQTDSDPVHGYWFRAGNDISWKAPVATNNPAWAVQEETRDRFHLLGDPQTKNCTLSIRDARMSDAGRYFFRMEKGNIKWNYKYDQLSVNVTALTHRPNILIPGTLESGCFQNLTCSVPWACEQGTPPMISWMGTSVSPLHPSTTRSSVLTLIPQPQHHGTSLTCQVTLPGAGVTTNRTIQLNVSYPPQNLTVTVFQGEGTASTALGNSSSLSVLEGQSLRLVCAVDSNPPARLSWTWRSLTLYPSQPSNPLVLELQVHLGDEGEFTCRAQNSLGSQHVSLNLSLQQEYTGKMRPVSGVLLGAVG
T2 sequence (P04275 764-1268): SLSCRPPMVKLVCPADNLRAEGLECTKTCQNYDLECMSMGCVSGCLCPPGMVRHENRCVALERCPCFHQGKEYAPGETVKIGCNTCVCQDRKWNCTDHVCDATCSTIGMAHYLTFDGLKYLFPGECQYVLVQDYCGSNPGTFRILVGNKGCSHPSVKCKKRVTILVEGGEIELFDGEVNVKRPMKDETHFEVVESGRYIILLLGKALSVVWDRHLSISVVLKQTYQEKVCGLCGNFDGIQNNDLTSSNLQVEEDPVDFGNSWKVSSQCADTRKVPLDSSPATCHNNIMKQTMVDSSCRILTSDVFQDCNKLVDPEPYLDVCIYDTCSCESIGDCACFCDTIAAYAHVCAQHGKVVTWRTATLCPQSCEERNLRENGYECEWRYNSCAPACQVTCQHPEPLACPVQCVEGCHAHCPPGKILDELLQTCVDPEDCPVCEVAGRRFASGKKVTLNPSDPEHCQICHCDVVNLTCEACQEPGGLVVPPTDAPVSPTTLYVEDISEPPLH
T3 sequence (P04275 2129-2813 limits assumed): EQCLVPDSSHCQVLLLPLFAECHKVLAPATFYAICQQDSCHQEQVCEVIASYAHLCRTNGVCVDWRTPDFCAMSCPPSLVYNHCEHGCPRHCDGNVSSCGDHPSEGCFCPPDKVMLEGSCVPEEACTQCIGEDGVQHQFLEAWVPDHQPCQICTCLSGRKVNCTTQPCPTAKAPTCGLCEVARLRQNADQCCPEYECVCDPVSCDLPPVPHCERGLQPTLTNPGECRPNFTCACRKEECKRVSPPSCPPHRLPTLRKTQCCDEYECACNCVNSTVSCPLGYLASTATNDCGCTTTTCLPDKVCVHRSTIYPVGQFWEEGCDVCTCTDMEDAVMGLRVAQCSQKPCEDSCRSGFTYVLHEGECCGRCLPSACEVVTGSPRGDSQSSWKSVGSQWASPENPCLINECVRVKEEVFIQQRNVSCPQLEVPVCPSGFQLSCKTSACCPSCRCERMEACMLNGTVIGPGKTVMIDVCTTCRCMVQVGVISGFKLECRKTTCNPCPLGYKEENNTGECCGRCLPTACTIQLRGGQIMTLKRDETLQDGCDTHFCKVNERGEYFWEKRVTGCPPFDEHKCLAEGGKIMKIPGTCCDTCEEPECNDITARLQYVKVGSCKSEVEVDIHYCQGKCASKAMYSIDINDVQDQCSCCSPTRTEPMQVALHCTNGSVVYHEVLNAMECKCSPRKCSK
T6 sequence (Q9Y336 18-348 limits assumed): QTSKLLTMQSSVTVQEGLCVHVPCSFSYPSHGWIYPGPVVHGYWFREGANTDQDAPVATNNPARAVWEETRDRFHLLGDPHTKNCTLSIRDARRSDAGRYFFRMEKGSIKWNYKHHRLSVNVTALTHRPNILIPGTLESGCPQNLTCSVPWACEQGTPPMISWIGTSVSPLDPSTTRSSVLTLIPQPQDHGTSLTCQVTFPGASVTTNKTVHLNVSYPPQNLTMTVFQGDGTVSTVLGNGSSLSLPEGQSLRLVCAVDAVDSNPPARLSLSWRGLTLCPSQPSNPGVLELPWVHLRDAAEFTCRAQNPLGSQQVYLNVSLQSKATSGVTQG
T4 sequence (P04275 764-2813 limits assumed): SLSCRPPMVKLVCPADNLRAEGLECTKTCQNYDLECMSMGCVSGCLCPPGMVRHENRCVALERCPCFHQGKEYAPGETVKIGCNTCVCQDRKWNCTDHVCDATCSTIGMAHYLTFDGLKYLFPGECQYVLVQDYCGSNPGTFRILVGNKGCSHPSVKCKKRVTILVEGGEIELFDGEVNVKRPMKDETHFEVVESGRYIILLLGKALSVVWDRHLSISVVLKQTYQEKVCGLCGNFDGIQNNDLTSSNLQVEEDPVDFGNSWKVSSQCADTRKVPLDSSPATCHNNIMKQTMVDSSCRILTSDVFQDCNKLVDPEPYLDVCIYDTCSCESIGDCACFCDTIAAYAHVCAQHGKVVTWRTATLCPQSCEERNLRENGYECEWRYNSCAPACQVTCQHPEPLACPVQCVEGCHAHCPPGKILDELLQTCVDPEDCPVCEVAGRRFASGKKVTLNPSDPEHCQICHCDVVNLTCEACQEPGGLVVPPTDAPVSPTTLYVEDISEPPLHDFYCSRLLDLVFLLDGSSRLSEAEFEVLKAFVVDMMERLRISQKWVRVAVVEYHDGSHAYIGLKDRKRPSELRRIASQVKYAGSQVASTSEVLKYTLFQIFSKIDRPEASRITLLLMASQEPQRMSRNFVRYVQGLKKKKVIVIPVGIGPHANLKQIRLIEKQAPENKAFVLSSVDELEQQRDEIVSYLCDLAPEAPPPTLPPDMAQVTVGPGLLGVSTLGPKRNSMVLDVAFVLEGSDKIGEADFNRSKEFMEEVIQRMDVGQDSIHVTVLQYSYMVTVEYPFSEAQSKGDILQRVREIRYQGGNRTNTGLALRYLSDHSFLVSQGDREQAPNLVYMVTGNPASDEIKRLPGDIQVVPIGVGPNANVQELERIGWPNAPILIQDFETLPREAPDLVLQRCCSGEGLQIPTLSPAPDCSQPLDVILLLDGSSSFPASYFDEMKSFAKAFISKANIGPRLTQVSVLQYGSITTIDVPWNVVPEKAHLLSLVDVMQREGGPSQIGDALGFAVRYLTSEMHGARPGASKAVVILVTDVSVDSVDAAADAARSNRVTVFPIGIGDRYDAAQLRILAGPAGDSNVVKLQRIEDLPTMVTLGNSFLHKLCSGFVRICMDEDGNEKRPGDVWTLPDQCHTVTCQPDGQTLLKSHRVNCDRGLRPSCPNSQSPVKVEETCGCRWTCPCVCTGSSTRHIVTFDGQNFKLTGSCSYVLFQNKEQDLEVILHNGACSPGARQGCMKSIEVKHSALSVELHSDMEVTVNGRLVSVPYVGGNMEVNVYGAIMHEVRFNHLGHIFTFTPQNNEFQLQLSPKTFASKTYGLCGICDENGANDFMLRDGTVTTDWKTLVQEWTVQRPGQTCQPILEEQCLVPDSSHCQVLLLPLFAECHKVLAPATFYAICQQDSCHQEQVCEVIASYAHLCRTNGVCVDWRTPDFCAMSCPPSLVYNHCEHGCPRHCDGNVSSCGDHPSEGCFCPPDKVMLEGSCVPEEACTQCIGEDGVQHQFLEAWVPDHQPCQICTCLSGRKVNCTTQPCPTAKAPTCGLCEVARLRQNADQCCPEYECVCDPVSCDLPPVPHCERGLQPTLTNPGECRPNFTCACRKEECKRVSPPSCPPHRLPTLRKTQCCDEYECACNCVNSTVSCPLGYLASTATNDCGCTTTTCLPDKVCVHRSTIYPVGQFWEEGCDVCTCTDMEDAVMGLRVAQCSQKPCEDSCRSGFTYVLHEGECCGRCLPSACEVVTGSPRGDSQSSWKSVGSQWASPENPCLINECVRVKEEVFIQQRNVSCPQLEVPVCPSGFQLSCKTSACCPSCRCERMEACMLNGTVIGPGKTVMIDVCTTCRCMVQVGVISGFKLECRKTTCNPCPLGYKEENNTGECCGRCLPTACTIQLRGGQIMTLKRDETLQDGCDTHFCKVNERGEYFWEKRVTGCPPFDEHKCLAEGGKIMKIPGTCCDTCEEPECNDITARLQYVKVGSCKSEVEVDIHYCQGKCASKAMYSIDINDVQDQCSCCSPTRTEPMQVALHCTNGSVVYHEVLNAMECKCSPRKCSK

Binder: B1
- Kd [1]: 1.03 µM
- binding result [2]: no binding (tested: 1 µg/mL)

Binder: B2
- binding result [3]: no binding (tested: 0.8 µg/mL)

Binder: B3
- binding result [4]: no binding (tested: 4 µg/mL)
- binding result [5]: no binding (tested: 4 µg/mL)
- binding result [6]: no binding (tested: 4 µg/mL)
- binding result [7]: no binding (tested: 4 µg/mL)
- binding result [8]: no binding (tested: 4 µg/mL)
